Test results reported in IntAct's records for PubMed 35512704.

B1: Mothers against decapentaplegic homolog 4 (Homo sapiens), Q13485 (parent)
chain: MDNMSITNTPTSNDACLSIVHSLMCHRQGGESETFAKRAIESLVKKLKEKKDELDSLITAITTNGAHPSKCVTIQRTLDGRLQVAGRKGFPHVIYARLWRWPDLHKNELKHVKYCQYAFDLKCDSVCVNPYHYERVVSPGIDLSGLTLQSNAPSSMMVKDEYVHDFEGQPSLSTEGHSIQTIQHPPSNRASTETYSTPALLAPSESNATSTANFPNIPVASTSQPASILGGSHSEGLLQIASGPQPGQQQNGFTGQPATYHHNSTTTWTGSRTAPYTPNLPHHQNGHLQHHPPMPPHPGHYWPVHNELAFQPPISNHPAPEYWCSIAYFEMDVQVGETFKVPSSCPIVTVDGYVDPSGGDRFCLGQLSNVHRTEAIERARLHIGKGVQLECKGEGDVWVRCLSDHAVFVQSYYLDREAGRAPGDAVHKIYPSAYIKVFDLRQCHRQMQQQAATAQAAAAAQAAAVAGNIPGPGSVGGIAPAISLSAAAGIGVDDLRRLCILRMSFVKGWGPDYPRQSIKETPCWIEIHLHRALQLLDEVLHTMPIADPQPLD

Variants of: B1
Settings: with p85b_human PIK3R2, O00459

Question: G386D was tested. Which “effect of a mutation on the interaction” value did it give?
Answer: Its value is “with no effect”.

Variants of: B1
Settings: with dpod1_human POLD1, P28340

Question: How did the “effect of a mutation on the interaction” value turn out when G386D was run?
Answer: The value was “with no effect”.

Variants of: B1
Settings: with dpoe1_human POLE

Question: Which “effect of a mutation on the interaction” value does the source give for G386D here?
Answer: The value was “with no effect”.

Variants of: B1
Settings: with 2aaa_human PPP2R1A

Question: How did the “effect of a mutation on the interaction” value turn out when G386D was run?
Answer: The value was “with no effect”.

Variants of: B1
Settings: with prdm1_human PRDM1, O75626

Question: G386D was tested. Which “effect of a mutation on the interaction” value did it give?
Answer: The value was “with no effect”.

Variants of: B1
Settings: with aapk2_human PRKAA2, P54646

Question: With G386D as the variant, how does the “effect of a mutation on the interaction” value read?
Answer: The value was “with no effect”.

Variants of: B1
Settings: with aakb2_human PRKAB2, O43741

Question: With G386D as the variant, how does the “effect of a mutation on the interaction” value read?
Answer: Its value is “with no effect”.

Variants of: B1
Settings: with prss8_human PRSS8, Q16651

Question: For G386D, which “effect of a mutation on the interaction” value is on record?
Answer: Its value is “with no effect”.

Variants of: B1
Settings: with ptk6_human PTK6, Q13882

Question: With G386D as the variant, how does the “effect of a mutation on the interaction” value read?
Answer: The value was “with no effect”.

Variants of: B1
Settings: with tf65_human RELA

Question: For G386D, which “effect of a mutation on the interaction” value is on record?
Answer: Its value is “with no effect”.

Variants of: B1
Settings: with rheb_human RHEB

Question: G386D was tested. Which “effect of a mutation on the interaction” value did it give?
Answer: The value was “with no effect”.

Variants of: B1
Settings: with rictr_human RICTOR

Question: How did the “effect of a mutation on the interaction” value turn out when G386D was run?
Answer: Its value is “with no effect”.

Variants of: B1
Settings: with rnf43_human RNF43, Q68DV7
rnf43_human RNF43, Q68DV7, sequence (Q68DV7 whole entry): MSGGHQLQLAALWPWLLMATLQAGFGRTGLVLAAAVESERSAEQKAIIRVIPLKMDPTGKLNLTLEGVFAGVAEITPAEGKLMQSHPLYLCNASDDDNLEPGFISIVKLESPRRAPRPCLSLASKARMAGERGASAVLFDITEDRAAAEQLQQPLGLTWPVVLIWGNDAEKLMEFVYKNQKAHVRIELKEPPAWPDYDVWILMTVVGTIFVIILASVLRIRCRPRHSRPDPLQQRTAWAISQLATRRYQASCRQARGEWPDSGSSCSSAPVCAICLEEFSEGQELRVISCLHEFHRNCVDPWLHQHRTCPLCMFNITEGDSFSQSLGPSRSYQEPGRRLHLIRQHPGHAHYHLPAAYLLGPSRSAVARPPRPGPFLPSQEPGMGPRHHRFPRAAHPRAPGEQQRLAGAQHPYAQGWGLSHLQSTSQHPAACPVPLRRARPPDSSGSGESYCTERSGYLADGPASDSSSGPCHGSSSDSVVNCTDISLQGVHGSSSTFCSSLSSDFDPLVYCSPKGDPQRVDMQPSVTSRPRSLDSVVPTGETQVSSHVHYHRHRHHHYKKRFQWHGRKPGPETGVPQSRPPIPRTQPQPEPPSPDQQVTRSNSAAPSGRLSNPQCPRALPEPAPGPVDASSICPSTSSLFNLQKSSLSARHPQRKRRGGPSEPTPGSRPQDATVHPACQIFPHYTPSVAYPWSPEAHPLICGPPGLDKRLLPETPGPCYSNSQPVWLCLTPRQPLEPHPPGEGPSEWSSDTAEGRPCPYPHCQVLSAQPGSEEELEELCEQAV

Question: G386D was tested. Which “effect of a mutation on the interaction” value did it give?
Answer: The value was “with no effect”.

Variants of: B1
Settings: with ros1_human ROS1, P08922
ros1_human ROS1, P08922, sequence (P08922 whole entry): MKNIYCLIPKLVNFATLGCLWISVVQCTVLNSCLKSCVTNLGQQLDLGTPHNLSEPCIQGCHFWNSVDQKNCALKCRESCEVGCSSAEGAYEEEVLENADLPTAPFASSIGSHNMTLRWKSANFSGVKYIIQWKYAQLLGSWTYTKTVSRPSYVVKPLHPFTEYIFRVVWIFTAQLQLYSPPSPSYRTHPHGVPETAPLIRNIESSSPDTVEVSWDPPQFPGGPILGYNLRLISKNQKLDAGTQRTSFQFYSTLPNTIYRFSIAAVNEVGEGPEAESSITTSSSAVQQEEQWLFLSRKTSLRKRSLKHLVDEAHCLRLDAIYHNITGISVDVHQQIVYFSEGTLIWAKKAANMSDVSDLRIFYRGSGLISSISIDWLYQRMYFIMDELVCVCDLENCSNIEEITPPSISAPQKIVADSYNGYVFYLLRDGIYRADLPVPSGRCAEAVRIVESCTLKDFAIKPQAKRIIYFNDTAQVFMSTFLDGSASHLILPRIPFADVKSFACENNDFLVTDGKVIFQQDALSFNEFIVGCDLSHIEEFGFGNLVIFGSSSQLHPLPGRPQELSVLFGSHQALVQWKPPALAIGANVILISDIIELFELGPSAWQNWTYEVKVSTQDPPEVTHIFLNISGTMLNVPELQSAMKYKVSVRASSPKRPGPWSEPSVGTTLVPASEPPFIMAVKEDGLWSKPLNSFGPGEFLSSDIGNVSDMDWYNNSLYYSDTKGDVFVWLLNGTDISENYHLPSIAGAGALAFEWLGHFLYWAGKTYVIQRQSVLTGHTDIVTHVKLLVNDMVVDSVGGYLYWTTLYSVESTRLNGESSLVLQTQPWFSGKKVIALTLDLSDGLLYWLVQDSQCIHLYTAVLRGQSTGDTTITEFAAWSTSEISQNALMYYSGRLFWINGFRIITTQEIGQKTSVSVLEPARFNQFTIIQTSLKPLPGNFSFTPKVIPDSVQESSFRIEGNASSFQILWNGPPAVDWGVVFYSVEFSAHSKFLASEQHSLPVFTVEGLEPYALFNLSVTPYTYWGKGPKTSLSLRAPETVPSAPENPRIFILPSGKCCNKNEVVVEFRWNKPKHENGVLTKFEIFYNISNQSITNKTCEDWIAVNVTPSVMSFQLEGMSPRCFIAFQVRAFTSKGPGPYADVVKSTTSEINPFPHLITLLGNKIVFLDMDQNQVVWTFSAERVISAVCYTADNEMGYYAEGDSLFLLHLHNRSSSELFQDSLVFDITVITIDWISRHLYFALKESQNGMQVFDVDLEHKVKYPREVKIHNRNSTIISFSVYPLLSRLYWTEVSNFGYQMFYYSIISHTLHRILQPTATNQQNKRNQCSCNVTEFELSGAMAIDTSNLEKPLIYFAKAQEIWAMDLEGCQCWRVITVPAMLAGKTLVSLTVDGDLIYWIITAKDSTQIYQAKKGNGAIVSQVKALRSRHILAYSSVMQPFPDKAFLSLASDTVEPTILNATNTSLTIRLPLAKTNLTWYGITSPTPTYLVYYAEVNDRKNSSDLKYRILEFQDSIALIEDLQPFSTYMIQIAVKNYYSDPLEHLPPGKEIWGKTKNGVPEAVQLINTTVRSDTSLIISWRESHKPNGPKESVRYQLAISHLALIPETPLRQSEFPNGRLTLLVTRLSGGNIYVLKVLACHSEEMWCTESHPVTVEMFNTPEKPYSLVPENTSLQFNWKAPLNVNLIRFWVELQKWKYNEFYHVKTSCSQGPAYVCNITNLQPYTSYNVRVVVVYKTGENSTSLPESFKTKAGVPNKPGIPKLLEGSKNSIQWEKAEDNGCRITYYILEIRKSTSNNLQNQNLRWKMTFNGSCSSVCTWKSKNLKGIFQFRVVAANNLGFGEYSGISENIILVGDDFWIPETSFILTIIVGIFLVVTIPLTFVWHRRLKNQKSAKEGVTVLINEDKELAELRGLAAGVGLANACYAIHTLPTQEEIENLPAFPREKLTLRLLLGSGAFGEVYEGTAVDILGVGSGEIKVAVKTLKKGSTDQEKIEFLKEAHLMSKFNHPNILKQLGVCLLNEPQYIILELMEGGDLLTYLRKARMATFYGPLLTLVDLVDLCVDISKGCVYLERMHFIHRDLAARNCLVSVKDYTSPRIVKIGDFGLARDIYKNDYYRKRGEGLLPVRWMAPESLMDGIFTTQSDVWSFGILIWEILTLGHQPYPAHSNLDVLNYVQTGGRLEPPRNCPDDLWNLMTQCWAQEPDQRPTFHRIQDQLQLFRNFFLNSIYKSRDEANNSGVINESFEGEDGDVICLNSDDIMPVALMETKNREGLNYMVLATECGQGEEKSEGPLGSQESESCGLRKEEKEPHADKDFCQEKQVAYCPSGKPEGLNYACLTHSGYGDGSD

Question: For G386D, which “effect of a mutation on the interaction” value is on record?
Answer: The value was “with no effect”.

Variants of: B1
Settings: with rl5_human RPL5, P46777

Question: With G386D as the variant, how does the “effect of a mutation on the interaction” value read?
Answer: Its value is “with no effect”.

Variants of: B1
Settings: with ks6b1_human RPS6KB1, P23443

Question: For G386D, which “effect of a mutation on the interaction” value is on record?
Answer: Its value is “with no effect”.

Variants of: B1
Settings: with rptor_human RPTOR

Question: Which “effect of a mutation on the interaction” value does the source give for G386D here?
Answer: The value was “with no effect”.

Variants of: B1
Settings: with runx1_human RUNX1, Q01196
runx1_human RUNX1, Q01196, sequence (Q01196 whole entry): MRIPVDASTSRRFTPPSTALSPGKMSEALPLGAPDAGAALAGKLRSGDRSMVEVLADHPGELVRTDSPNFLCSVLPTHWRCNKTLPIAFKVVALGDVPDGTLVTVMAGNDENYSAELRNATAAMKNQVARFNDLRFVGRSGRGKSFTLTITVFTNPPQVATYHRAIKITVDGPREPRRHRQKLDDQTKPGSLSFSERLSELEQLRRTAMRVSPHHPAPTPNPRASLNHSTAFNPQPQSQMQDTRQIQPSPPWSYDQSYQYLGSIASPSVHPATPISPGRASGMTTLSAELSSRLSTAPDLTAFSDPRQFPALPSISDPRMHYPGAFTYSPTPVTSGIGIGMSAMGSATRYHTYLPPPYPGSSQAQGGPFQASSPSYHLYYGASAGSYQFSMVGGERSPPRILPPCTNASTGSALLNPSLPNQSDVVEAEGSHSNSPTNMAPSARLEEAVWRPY

Question: With G386D as the variant, how does the “effect of a mutation on the interaction” value read?
Answer: The value was “with no effect”.

Variants of: B1
Settings: with ruvb1_human RUVBL1, Q9Y265

Question: Which “effect of a mutation on the interaction” value does the source give for G386D here?
Answer: Its value is “with no effect”.

Variants of: B1
Settings: with sdha_human SDHA

Question: How did the “effect of a mutation on the interaction” value turn out when G386D was run?
Answer: Its value is “with no effect”.

Variants of: B1
Settings: with setb1_human SETDB1, Q15047

Question: Which “effect of a mutation on the interaction” value does the source give for G386D here?
Answer: The value was “with no effect”.

Variants of: B1
Settings: with skp2_human SKP2, Q13309

Question: With G386D as the variant, how does the “effect of a mutation on the interaction” value read?
Answer: The value was “with no effect”.

Variants of: B1
Settings: with smad1_human SMAD1, Q15797
smad1_human SMAD1, Q15797, sequence (Q15797 whole entry): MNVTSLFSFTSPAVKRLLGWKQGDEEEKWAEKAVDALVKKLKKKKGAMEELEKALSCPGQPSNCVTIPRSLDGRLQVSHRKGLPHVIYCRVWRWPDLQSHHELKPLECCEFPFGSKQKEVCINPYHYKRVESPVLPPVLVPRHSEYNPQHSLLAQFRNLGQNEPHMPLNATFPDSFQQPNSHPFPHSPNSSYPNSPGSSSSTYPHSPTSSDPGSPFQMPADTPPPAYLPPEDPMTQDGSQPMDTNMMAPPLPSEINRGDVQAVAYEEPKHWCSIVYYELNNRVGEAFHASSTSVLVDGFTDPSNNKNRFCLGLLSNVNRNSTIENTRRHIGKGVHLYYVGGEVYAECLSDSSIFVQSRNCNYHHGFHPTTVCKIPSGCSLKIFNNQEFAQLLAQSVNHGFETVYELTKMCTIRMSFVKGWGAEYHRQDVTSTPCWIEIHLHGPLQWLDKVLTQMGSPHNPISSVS

Question: Which “effect of a mutation on the interaction” value does the source give for G386D here?
Answer: The value was “with no effect”.

Variants of: B1
Settings: with smad2_human SMAD2, Q15796

Question: With G386D as the variant, how does the “effect of a mutation on the interaction” value read?
Answer: Its value is “with no effect”.

Variants of: B1
Settings: with smad3_human SMAD3, P84022

Question: Which “effect of a mutation on the interaction” value does the source give for G386D here?
Answer: Its value is “with no effect”.

Variants of: B1
Settings: with smca4_human SMARCA4, P51532

Question: Which “effect of a mutation on the interaction” value does the source give for G386D here?
Answer: Its value is “with no effect”.

Variants of: B1
Settings: with snf5_human SMARCB1, Q12824

Question: Which “effect of a mutation on the interaction” value does the source give for G386D here?
Answer: The value was “with no effect”.

Variants of: B1
Settings: with smo_human SMO

Question: For G386D, which “effect of a mutation on the interaction” value is on record?
Answer: The value was “with no effect”.

Variants of: B1
Settings: with socs1_human SOCS1, O15524

Question: G386D was tested. Which “effect of a mutation on the interaction” value did it give?
Answer: Its value is “with no effect”.

Variants of: B1
Settings: with sox10_human SOX10, P56693
sox10_human SOX10, P56693, sequence (P56693 whole entry): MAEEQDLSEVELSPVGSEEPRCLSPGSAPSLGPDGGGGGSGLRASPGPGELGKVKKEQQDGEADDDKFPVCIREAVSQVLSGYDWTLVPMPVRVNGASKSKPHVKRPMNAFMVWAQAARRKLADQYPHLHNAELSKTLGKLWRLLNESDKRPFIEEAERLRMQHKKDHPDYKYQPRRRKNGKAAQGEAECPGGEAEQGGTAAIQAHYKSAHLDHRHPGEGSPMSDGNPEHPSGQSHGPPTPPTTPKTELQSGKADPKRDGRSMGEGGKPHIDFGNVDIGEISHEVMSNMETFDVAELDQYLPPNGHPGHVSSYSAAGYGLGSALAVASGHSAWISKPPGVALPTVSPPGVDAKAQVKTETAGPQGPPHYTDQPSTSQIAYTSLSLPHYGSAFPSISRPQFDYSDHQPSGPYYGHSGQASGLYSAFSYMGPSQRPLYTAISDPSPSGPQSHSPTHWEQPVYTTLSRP

Question: How did the “effect of a mutation on the interaction” value turn out when G386D was run?
Answer: Its value is “with no effect”.

Variants of: B1
Settings: with sox2_human SOX2, P48431

Question: With G386D as the variant, how does the “effect of a mutation on the interaction” value read?
Answer: Its value is “with no effect”.

Variants of: B1
Settings: with sox3_human SOX3, P41225

Question: G386D was tested. Which “effect of a mutation on the interaction” value did it give?
Answer: The value was “with no effect”.

Variants of: B1
Settings: with sox4_human SOX4, Q06945

Question: Which “effect of a mutation on the interaction” value does the source give for G386D here?
Answer: The value was “with no effect”.

Variants of: B1
Settings: with sox9_human SOX9, P48436

Question: For G386D, which “effect of a mutation on the interaction” value is on record?
Answer: The value was “with no effect”.

Variants of: B1
Settings: with spop_human SPOP

Question: With G386D as the variant, how does the “effect of a mutation on the interaction” value read?
Answer: Its value is “with no effect”.

Variants of: B1
Settings: with src_human SRC

Question: How did the “effect of a mutation on the interaction” value turn out when G386D was run?
Answer: Its value is “with no effect”.

Variants of: B1
Settings: with stat3_human STAT3, P40763

Question: With G386D as the variant, how does the “effect of a mutation on the interaction” value read?
Answer: The value was “with no effect”.

Variants of: B1
Settings: with stk38_human STK38, Q15208
stk38_human STK38, Q15208, sequence (Q15208 whole entry, looked up): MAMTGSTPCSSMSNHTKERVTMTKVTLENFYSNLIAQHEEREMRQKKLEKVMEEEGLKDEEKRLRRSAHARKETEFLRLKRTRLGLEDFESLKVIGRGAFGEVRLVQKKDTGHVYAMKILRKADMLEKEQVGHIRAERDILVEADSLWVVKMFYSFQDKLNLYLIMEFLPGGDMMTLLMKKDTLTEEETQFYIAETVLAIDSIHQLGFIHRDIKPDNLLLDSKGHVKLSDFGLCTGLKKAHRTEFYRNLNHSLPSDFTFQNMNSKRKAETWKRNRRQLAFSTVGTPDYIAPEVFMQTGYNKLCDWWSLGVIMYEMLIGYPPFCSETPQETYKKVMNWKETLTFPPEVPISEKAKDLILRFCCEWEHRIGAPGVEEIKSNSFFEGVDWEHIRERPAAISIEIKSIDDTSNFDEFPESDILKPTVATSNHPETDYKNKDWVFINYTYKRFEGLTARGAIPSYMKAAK

Question: Which “effect of a mutation on the interaction” value does the source give for G386D here?
Answer: The value was “with no effect”.

Variants of: B1
Settings: with ksyk_human SYK

Question: With G386D as the variant, how does the “effect of a mutation on the interaction” value read?
Answer: The value was “with no effect”.

Variants of: B1
Settings: with eloc_human ELOC

Question: G386D was tested. Which “effect of a mutation on the interaction” value did it give?
Answer: Its value is “with no effect”.
